Laboratory results published in US6576607B1, “Methods using CNS neurite outgrowth modulators” (Acorda Therapeutics, priority 1995, dated 2003).

Columns and labels:
dopaminergic neurons [1] = assay: [3H]dopamine uptake in primary cultures of embryonic ventral mesencephalon; type: cell-based, rat; details: 0.5 μM, 3 days
Protocol: (§1) Cell culture, dopamine uptake and treatment with MPP+have been described (Hartikka et al., 1992). Primary cultures containing dopaminergic neurons were prepared from the ventral mesencephalon of 14-day-old fetal rats and plated in 24 well plates. A culture well usually contained 6×10^5 cells/well, of which 3-5% were dopaminergic. Duplicate cultures were prepared for dopamine uptake or tyrosine hydroxylase staining. Dopamine uptake was measured using tritiated dopamine at concentrations of 50 nM (sp, act. 45 Ci/mmol, New England Nuclear). The survival of dopaminergic neurons in the culture was assayed by counting tyrosine hydroxylase (TH) immunopositive neurons, stained with a monoclonal antibody to TH (Boehringer Mannheim).
(§2) The monoclonal L1 antibodies 327 and 557.B6 (referred to as 557) were added to the culture medium on the day of plating at concentrations of 7.5-120 μg/ml and left for 3 days. In addition to treatment of the culture medium with antibodies, they were also substrate coated prior to plating of the cells, as described (Appel et al., 1993). In experiments with MPP^+ (active metabolite of methyl-phenyl-tetrahydropyridine, MPTP), antibodies or cAMP-elevating agents were added to the culture medium of 5-day-old cultures, followed by 1 μM MPP^+ on day 6 and cells were fixed on day 8 for immunocytochemistry. […]

dopaminergic neurons [2] = assay: Protection of dopaminergic neurons from MPP+ neurotoxicity; type: cell-based, rat; details: forskolin combined with PDE-IV inhibitor NQ-A
Protocol: as §1, §2

injured rat spinal cord = assay: Rat spinal cord contusion injury (NYU impactor), intrathecal infusion; type: in vivo; details: 15 μg/ml intrathecally, 6 rats without CyA; unpublished experiments
Protocol: The NYU Impactor and rat contusion models of spinal cord injury have been extensively described. [Kwo S, Young W, DeCrescito V (1989) Journal of Neurotrauma 6:13-24; Huang P, Young W (1994). Journal of Neurotrauma 11: 547-62; Basso M, Beattie M, Bresnahan J, Anderson DK, Faden A, et al. (1996) Journal of Neurotrauma in press; Constantini S, Young W (1994) Journal of Neurosurgery 80: 97-111]. Rats were anesthetized with an intraperitoneal dose of pentobarbital (40 mg/kg female, 60 mg/kg male), suspended with clamps placed on the T8 and T11 dorsal processes, and injured at one hour after induction of anesthesia. The impactor drops a 10 g rod a distance of 12.5, 25.0, or 50.0 mm onto the dorsal surface of T9-10 spinal cord, exposed by laminectomy. Two digital optical potentiometers measured the trajectory of the falling rod and vertebral movement with a precision of ±20 μm and ±20 μsec. Cord compression rate (Cr) was calculated from the distance of cord compression divided by time required for compression. […]
The rats received daily Keflin® (15 mg/kg b.i.d. subcutaneous) for one week after injury and then Baytril® (5 mg/kg b.i.d. subcutaneous) for 10 days for recurrent urinary tract infections. […] The rats were assessed weekly for locomotor recovery, using the Basso-Beattie-Bresnahan (BBB) scale developed at Ohio State University. […]

hippocampal neurons [3] = assay: Neurite outgrowth assay, hippocampal neurons; type: cell-based, rat; details: hippocampal neurons from 18-day embryos
Protocol: The tissue culture wells and glass cover slips (1.1 cm diameter) were incubated overnight at 4° C. with 0.01% poly-L-lysine (PLL) and washed three times with distilled water. L1-Fc or CHL1-Fc diluted in Ca/Mg-free Hank's Balanced Salt Solution were applied overnight at 4° C., at the concentrations indicated in the text. The wells and coverslips were washed twice with Hank's and once with seeding medium just before plating cells.
(§3) Hippocampal neurons were prepared from 18-day rat embryos as described (Lochter, A., et al (1991); Brewer, G. J., et al (1993)). Neurons were re-suspended and plated in serum-free Dulbecco's modified Eagle's medium/Nutrient Mix F12 (Life Technologies, Inc.) supplemented with N2 components, 33 mM D-glucose, 1 mM pyruvate, 1 mg/ml BSA, and 5 mM Hepes.
Cerebellar granule cells and hippocampal neurons were seeded into pro-treated 96-well tissue culture plates at a density of 1×10^4 cells or 5×10^3 cells per well, respectively, in 100 μl medium. Soluble fusion proteins were added, when used, 2 hours after seeding the cells, to avoid effects on initial adhesion. […] The lengths of individual neurite were analyzed and quantified with an IBAS image analysis system (Kontron). […] For each cell measured, the total length of all neurites was determined. In each experiment, 50 cells in each of three wells were analyzed. […]

hippocampal neurons [4] = assay: Cell survival assay (MTT), embryonic hippocampal neurons; type: cell-based, rat; details: 5 days in culture
Protocol: as §3

cerebellar granule cells = details: 5 days in culture

COC(=O)c1cccc(-n2c(=O)n(Cc3ccccc3)c(=O)c3ccccc32)c1 [NQ-A, 1-(3-carbomethoxyphenyl)-3-benzyl-quinazoline-2,4-dione]
dopamine uptake (dopaminergic neurons [1]): slight elevation of dopamine uptake | protection from MPP+ toxicity (dopaminergic neurons [2]): effectively protects against MPP^+ toxicity

B1: NgCAM: immunogenic chick NgCAM given intrathecally (protein, UniProt Q03696 21-1266, looked up)
Neuronal-glial cell adhesion …: ITIPPEYGAHDFLQPPELTEEPPEQLVVFPSDDIVLKCVATGNPPVQYRWSREDQPFVPEEHGGVSVVPGSGTLVINATLAARLQGRFRCFATNALGTAVSPEANVIAENTPQWPKEKVTPVEVEEGDPVVLPCDPPESAVPPKIYWLNSDIVHIAQDERVSMGQDGNLYFSNAMVGDSHPDYICHAHFLGPRTIIQKEPLDLRVAPSNAVRSRRPRLLLPRDPQTTTIALRGGSVVLECIAEGLPTPWVRWRRLNGPLLPGGVGNFNKTLRLWGVTESDDGEYECVAENGRGTARGTHSVTVEAAPYWVRRPQSGVFGPGETARLDCEVGGKPRPQIQWSINGVPIEAAGAERRWLRGGALVLPELRPNDSAVLQCEARNRHGPLLANAFLHVVELPLRMLTADEQRYEVVENQTVFLHCRTFGAPAPNVEWLTPTLEPALQDDRSFVFTNGSLRVSAVRGGDGGVYTCMAQNAHSNGSLTALLEVRAPTRISAPPRSATAKKGETVTFHCGATFDPAVTPGELRWLRGGQPLPDDPRYSVAAEMTVSNVDYGDEGTIQCRASTPLDSAEAEAQLRVVGRPPSRDLQVMEVDEHRVRLSWTPGDDHNSPIEKFVVEEEEEREDLQRGFGAADVPGQPWTPPLPLSPYGRFPFRVVAVNAYGRGEHHAPSAPIETPPAAPERNPGGVHGEGNETGNLVITWEPLPPQAWNAPWARYRVQWRPLEEPGGGGPSGGFPWAESTVDAPPVVVGGLPPFSPFQIRVQAVNGAGKGPEATPGVGHSGEDLPLVYPENVGVELLNSSTVRVRWTLGGGPKELRGRLRGFRVLYWRLGWVGERSRRQAPPDPPQIPQSPAEDPPPFPPVALTVGGDARGALLGGLRPWSRYQLRVLVFNGRGDGPPSEPIAFETPEGVPGPPEELRVERLDDTALSVVERRTFKRSITGYVLRYQQVEPGSALPGGSVLRDPQCDLRGLNARSRYRLALPSTPRERPALQTVGSTKPEPPSPLWSRFGVGGRGGFHGAAVEFGAAQEDDVEFEVQFMNKSTDEPWRTSGRANSSLRRYRLEGLRPGTAYRVQFVGRNRSGENVAFWESEVQTNGTVVPQPGGGVCTKGWFIGFVSSVVLLLLILLILCFIKRSKGGKYSVKDKEDTQVDSEARPMKDETFGEYRSLESEAEKGSASGSGAGSGVGSPGRGPCAAGSEDSLAGYGGSGDVQFNEDGSFIGQYRGPGAGPGSSGPASPCAGPPLD
locomotor recovery and corticospinal tract regeneration (injured rat spinal cord): did not result in locomotor recovery or evidence of regenerating corticospinal tracts

B2: CHL1-Fc: extracellular domain of mouse CHL1 fused to the Fc portion of human immunoglobulin IgG1 (protein)
chain: EIPLSVQQVPTIVKQSYVQVAFPFDEYFQIECEAKGNPEPIFSWTKDDKPFDLSDPRIIAANNSGTFKIPNEGHISHFQGKYRCFASNRLGTAVSEEIEFIVPGVPKFPKEKIEPIDVEEGDSIVLPCNPPKGLPPLHIYWMNIELEHIEQDERVYMSQRGDLYFANVEENDSRNDYCCFAAFPKLRTIVQKMPMKLTVNSSNSIKQRKPKLLLPPAQMGSLSAKTVLKGDTLLLECFAEGLPTPHIQWSKPGSELPEGRATIEVHEKTLKIENISYQDRGNYRCTANNLLGKASHDFHVTVEEPPRWKKKPQSAVYSTGSSGILLCEAEGEPQPTIKWRLNGLPIEKHPFPGDFMFPREISFTNLLFNHTGVYQCEASNIHGTILANANIDVIDVIPLIKTKNEENYATVVGYSAFLHCEYFASPKATVVWEVADETHPLEGDRYHTHENGTLEIYRTTEEDAGSYSCWVDNAMGKAVITANLDIRNATKLRVSPKNPRIPKSHVLELYCESQCDSHLKHSLKLSWSKDGEAFEMNGTEDGRIVIDGAYLTISNITAEDQGVYSCSAQTSLDSTSEKTQVTVLGVPDPPETFTCQKDKNRSVRLLREAGDDHNSKSASTIVEFEGNREEPGKWEELTRVQGEETDVVLSLAPYVRYQFRVTAVNEVGRSHASLPSDHHETPPAAPDKNPQNIRVQASQPKEMIIKWEPLKSMEQNGPGLEYKVSWKPQGAPEEWEEEIVTNHTLRVMTPTVYAPYDVKVQAINQLGSSPDPQPVTLYSGEDYPSTAPVIQRVDVMNSTLVKVTWSSIPKETVHGLLRGYQINWWKTKSLLDGRTHPKEVNILRFSGQRNSGMVPSLDPFSEFHLTVLAYNSKGAGPESEPYIFQTPEGVPEQPSFLKVIKVDKDTATLSWGLPKKLNGNLTGYLLQYQIINDTYELGELNEINVTTPSKSSWHLSNLNSTTKYKFYLRACTSRGCGKPISEEGATLGEGSKGIRKITEGVNVTQKIHPVEVLVPGAEHIVHLMTKNWGDNDSIFQDVIETRGREYAGLYDDISTQGW
modifications: left off: a dimerising Fc or GST
notes: extracellular domain of mouse CHL1 fused to the Fc portion of human immunoglobulin IgG1
neurite outgrowth (hippocampal neurons [3]): a stimulation was observed | concentration of maximal effect on survival (hippocampal neurons [4]): 1 µg/mL | survival (hippocampal neurons [4]): enhanced survival | morphological features of cultures (cerebellar granule cells): denser, generally healthier-looking cultures
